Measurements: patent US20230312739A1 (BIOTHEUS, published 2023)

Assays:
[1] = molecular target: T1, CD73 on cynomolgus macaques CD3+CD8+ T cells (cynomolgus macaques, UniProt A0A2K5V5U7 27-549); test: flow cytometry on cynomolgus macaque PBMC, CD3+CD8+ T cells, donor 1132F
T1 construct: whole, on cells; also called cynomolgus macaques T cells; cynomolgus macaques PBMC
T1 sequence: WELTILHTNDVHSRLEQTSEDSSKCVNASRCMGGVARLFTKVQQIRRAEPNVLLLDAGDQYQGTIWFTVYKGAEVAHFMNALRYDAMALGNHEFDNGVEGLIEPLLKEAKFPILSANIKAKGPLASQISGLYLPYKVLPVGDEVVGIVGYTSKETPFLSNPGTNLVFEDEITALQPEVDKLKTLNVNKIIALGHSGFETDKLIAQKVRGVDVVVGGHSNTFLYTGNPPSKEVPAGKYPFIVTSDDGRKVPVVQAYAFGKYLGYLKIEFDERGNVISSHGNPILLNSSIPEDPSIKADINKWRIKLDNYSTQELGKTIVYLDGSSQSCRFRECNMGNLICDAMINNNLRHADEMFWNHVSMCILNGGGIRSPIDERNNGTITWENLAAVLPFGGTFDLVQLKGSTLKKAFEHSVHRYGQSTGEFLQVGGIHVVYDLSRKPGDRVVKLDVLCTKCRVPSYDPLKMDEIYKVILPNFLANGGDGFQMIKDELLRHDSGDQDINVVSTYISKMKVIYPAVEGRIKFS
Procedure: Monkey blood samples from two donors (1132F and 1300M) were obtained from Medicilon. Peripheral blood mononuclear cells (PBMCs) were isolated using a Ficoll density gradient centrifugation system. The PBMCs were incubated with the antibody to be tested, then the antibodies bound on the cells were stained with fluorochrome-labeled secondary antibodies (DyLight488 goat anti-mouse IgG, Abcam Cat. No. ab97015; DyLight488 goat anti-human IgG, Abcam Cat. No. ab97003), and the fluorochrome-labeled antibodies against CD3+ and CD8+ were used to recognize T cells. Together with the unstained control samples and the fluorescence compensation control samples, all the samples were run on a flow cytometer to detect the binding of the antibodies to cynomolgus macaques T cells.

[2] = molecular target: T2, human CD73 on the cell surface (tumor cells endogenously expressing human CD73; CHOS-human CD73) (human, UniProt P21589 27-549); test: full-field cell scanning analyzer (Celigo), percent fluorescent cells, Calu6 cells endogenously expressing human CD73
T2 construct: The endogenous CD73 of the human tumor lines (MDA-MB-231, Calu6, SK-ME-S, H2030, SKLU1, BT549, A375, HCC44) is treated as the same protein
T2 sequence: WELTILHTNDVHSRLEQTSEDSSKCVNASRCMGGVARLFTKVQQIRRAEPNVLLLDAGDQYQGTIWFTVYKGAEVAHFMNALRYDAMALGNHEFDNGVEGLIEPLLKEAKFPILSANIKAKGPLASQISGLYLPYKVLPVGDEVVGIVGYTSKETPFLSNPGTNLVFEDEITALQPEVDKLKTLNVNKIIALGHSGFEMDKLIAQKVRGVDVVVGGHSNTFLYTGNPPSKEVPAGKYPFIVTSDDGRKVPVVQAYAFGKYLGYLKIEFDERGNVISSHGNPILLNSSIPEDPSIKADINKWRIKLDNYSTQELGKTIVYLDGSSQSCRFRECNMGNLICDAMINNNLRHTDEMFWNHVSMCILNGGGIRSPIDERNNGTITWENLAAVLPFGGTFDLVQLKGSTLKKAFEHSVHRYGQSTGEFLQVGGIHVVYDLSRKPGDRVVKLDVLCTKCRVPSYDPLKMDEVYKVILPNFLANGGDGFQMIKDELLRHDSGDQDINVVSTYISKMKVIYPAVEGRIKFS
Procedure: Experimental method: 10,000 cells were plated on a flat-bottom 96-well plate with 100 μL DMEM+10% FBS/well, cultured overnight so that the cells adhered to the well, and the supernatant was discarded on the next day. Serial 3-fold dilutions of antibody for 8 points were performed by diluting ⅓ of the total volume (100 μL) in 200 μL DMEM. 100 μL of the diluted antibody was added to each well of the cell plate (the supernatants of fused clones or subclones were used for screening), 100 μL of DMEM was added to the corresponding negative control well, and incubation was performed at room temperature for 1 hour. After the supernatant was discarded, 100 μL of secondary antibody (DyLight488 goat anti-mouse IgG (Abcam, Cat. No. ab97015)) was added to each well at a concentration of 5 μg/mL (diluted in DMEM), and incubation was performed for 0.5 hours at room temperature. After staining, the supernatant was discarded, followed by washing once with PBS+2% FBS, then 100 μL of PBS+2% FBS was added to each well, and then reading was performed on analyzer. A full-field cell scanning analyzer (Nexcelom Company, model Celigo® Image Cytometer) was used to measure the reading of the experimental plate. […] The binding effect of the anti-CD73 antibody to the CD73-expressing cell line was determined according to the percentage. […]

B1: murine antibody 13D12 (antibody, V domains shown)
VH: DVKLQESGPAMVKPSQSLSLTCTVTGYSITSGYDWHWIRLFPGNKLEWMGYISYSGYTDYSPSLKSRISITHDTSKNHFFLKLHSVTTEDTATYYCTRGDHSYAMDYWGQGTSVTVS
VL: DIVMTQSHKFMSTSVGDRVSITCKASQAVGTAVAWYQQKPGQSPKLLIYWASSRHTGVPDRFTGSRSGTDFTLTISSVQSEDLADYFCQQYSSYPLTFGGGTNLEIK
notes: Mouse monoclonal antibody purified from hybridoma supernatant; also called mouse monoclonal antibody 13D12
In the case of B1, the “MFI FC (fold change of mean fluorescence intensity)” value [1] is reported as 5 fold and the EC50 [2] is reported as 0.47 µg/mL.
